Laboratory results taken from PMC11877715, “NONO regulates m^5C modification and alternative splicing of PTEN mRNAs to drive gastric cancer progression” (Journal of Experimental & Clinical Cancer Research : CR, 2025).

Target: T1, purified HA-NSUN2 (human, UniProt Q08J23 1-767)
T1 construct: NSUN2, human, in p-GEX-4T-1; The plasmid is called GST-HA-NSUN2, the protein in the assay HA-NSUN2; also called GST-HA-NSUN2; HA-NSUN2 fusion protein; source: E. coli, purified (prepared 'as described previously')
Test: pull-down; Called GST pull-down; about 100 µg GST-Flag-NONO and HA-NSUN2 incubated overnight with anti-Flag antibody at 4 °C, protein A/G magnetic beads 1 h at room temperature, low-pH elution, Western blot
Conditions: both partners purified

T1 sequence (Q08J23 whole entry, the tested form may be a part): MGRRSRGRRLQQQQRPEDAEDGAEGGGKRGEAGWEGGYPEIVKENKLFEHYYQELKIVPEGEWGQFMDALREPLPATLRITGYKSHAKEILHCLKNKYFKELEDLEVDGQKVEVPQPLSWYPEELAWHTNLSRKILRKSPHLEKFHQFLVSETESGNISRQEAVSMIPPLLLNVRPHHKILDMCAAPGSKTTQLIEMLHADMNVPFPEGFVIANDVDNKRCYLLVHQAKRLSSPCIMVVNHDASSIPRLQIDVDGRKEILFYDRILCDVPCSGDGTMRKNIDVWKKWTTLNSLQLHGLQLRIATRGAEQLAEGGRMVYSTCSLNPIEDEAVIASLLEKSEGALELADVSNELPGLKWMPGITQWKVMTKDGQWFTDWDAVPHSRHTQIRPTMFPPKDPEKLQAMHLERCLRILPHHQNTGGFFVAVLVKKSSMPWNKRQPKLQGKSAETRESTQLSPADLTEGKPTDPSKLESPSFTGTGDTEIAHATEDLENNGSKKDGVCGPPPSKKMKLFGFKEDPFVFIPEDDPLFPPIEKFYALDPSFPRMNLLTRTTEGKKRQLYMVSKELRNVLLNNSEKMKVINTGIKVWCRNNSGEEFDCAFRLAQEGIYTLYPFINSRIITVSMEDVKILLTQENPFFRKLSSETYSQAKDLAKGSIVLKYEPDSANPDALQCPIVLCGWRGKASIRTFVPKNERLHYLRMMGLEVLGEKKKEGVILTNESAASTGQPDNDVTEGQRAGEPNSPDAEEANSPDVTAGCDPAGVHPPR

binding result: binds
B1: GST-Flag-NONO (natural protein, human, UniProt Q15233 1-471, looked up)
chain: MQSNKTFNLEKQNHTPRKHHQHHHQQQHHQQQQQQPPPPPIPANGQQASSQNEGLTIDLKNFRKPGEKTFTQRSRLFVGNLPPDITEEEMRKLFEKYGKAGEVFIHKDKGFGFIRLETRTLAEIAKVELDNMPLRGKQLRVRFACHSASLTVRNLPQYVSNELLEEAFSVFGQVERAVVIVDDRGRPSGKGIVEFSGKPAARKALDRCSEGSFLLTTFPRPVTVEPMDQLDDEEGLPEKLVIKNQQFHKEREQPPRFAQPGSFEYEYAMRWKALIEMEKQQQDQVDRNIKEAREKLEMEMEAARHEHQVMLMRQDLMRRQEELRRMEELHNQEVQKRKQLELRQEEERRRREEEMRRQQEEMMRRQQEGFKGTFPDAREQEIRMGQMAMGGAMGINNRGAMPPAPVPAGTPAPPGPATMMPDGTLGLTPPTTERFGQAATMEGIGAIGGTPPAFNRAAPGAEFAPNKRRRY
notes: NONO, human, FL, in p-GEX-4T-1; also called GST-tagged Flag-NONO; FLAG-NONO-FL in p-GEX-4T-1; source: E. coli, purified (prepared 'as described previously')
